{
  "source": "patent US5605671",
  "key": {"[1]": {"target": "Interleukin-8 receptor molecules on purified human neutrophils", "experiment": "saturation binding of radioligand to purified human neutrophils, analysis of binding curves"}, "[2]": {"target": "Interleukin-8 receptor molecules on purified human neutrophils"}, "[3]": {"target": "Interleukin-8 receptor molecules on purified human neutrophils", "experiment": "radioligand binding to purified human neutrophils, with and without 1000-fold molar excess of nonlabeled IL-8"}},
  "data": [
    {"substance": "I-125-labeled human recombinant interleukin-8 (ligand)", "values": [
      {"measurement": "Kd", "setting": "[1]", "result": 0.83, "unit": "nM"},
      {"measurement": "estimated maximum binding sites per cell (binding sites per cell)", "setting": "[1]", "result": 60000},
      {"measurement": "neutrophil chemotaxis in a Boyden chamber", "setting": "[2]", "result": "> 95", "unit": "%"},
      {"measurement": "specific binding as share of total binding", "setting": "[3]", "result": "> 90", "unit": "%"}
    ]}
  ]
}
